{"source": "patent US20080248008A1", "about": "“Inhibitors of Protein Kinase a Anchoring” (priority 2004, published 2008)", "key": {"RII": {"target": "T1, RII (Homo sapiens, UniProt P13861)", "T1 construct": "endogenous in cells; host or cells: HEK293", "T1 sequence (P13861 whole entry, the tested form may be a part)": "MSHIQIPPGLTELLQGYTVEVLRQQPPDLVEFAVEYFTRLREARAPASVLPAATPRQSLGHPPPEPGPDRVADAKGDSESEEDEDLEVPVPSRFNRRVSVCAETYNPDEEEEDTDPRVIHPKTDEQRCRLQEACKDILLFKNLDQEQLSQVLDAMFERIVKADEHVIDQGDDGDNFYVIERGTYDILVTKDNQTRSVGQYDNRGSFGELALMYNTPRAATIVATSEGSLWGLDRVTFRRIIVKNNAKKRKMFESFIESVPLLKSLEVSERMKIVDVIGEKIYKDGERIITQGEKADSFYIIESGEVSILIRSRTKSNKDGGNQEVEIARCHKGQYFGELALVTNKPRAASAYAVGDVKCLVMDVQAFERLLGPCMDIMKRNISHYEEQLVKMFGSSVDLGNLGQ", "assay": "Co-immunoprecipitation with RII in transfected HEK293 cells", "type": "cell-based", "details": "HEK293 cells transfected with GFP-fusion constructs", "procedure": "HEK293 cells at […] were transfected with ten μg of plasmid DNA (GFP, GFP-MEME3 or GFP-Scrambled MEME3) by using the CaCl2 method. Cells were lysed after 30 hours in lysis buffer (20 mM Hepes, pH 7.5/150 mM NaCl/1 mM EDTA/1% Triton X-100) with protease inhibitors (Complete Mini, EDTA-free tablets, Roche).\nImmunoblot analysis. Immunocomplexes and lipid raft fractions were analysed on a 10, 15% or 4-20% PAGE and blotted onto PVDF membranes. The filters were blocked in 5% non-fat dry milk in TBST for 30 minutes at RT, incubated 1 hour at RT (or overnight at 4° C.) with primary antibodies, washed four times 5 minutes in TBST with 0.1% Tween-20 and incubated with a horseradish-peroxidase-conjugated secondary antibody. Blots were developed by using Supersignal West Dura Extended Duration Substrate or Supersignal West Pico substrate (Pierce).\nAntibodies. RI or RII were immunoprecipitated with polyclonal antibodies against human RI or human RII at a 3 μg/ml dilution (Santa Cruz Biotechnology). MEME3 or scrambled peptide was immunoprecipitated with 1.5 μl of anti-GFP antiserum (Invitrogen). […]\nImmunocomplexes were analysed on 10% PAGE (B and C) or 15% PAGE (D) and subjected to Western blotting using anti-GFP, anti-RI or anti-RII as indicated and blotted onto PVDF membranes. […]"}, "PKA-RIIα": {"target": "T2, PKA-RIIα (Mus musculus, UniProt P12367)", "T2 construct": "host or cells: mouse Y-1 adrenocortical cells (lysate)", "T2 sequence (P12367 whole entry)": "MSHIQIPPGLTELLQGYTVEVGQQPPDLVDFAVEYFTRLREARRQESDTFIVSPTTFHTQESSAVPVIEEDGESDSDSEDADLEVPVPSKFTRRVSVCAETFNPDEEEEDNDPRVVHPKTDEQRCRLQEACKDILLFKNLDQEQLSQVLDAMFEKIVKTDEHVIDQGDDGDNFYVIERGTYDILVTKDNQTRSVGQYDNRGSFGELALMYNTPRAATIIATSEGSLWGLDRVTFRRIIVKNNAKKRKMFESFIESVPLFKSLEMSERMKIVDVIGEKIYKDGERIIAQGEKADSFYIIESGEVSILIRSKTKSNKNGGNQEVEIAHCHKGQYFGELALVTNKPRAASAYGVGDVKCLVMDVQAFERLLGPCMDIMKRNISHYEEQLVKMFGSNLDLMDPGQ", "assay": "Solid phase immobilization from Y-1 adrenal cell lysate, PKA-RIIα", "type": "binding", "details": "overnight", "procedure": "Solid phase assay and cell lysate. 5×10^6 Y1 cells or 20×10^6 Jurkat T cells lysed in 150 mM NaCl, 1% NP-40, 0.5% deoxycholate, 0.1% SDS and 50 mM Tris HCl (7.8) were incubated overnight at 4° C. with MEME3 and SM3 peptides synthesized on membranes (Autospot, Intavis, AG). The membranes were washed two times for 10 minutes in lysis buffer and thereafter in high salt lysis buffer (1 M NaCl) before boiling in SDS-PAGE loading buffer.\nA solid phase immobilization assay (schematic illustration in FIG. 24, left panel) was used to analyse endogenous PKA binding to MEME3. MEME3 and SM3 peptides synthesized in triplicate on membranes were incubated overnight in lysate from Y-1 adrenal cells. Thereafter bound proteins were eluted, subjected to 10% PAGE and analysed by immunoblotting using specific antibodies against PKA-RIα, PKA-C and PKA-RIIα subunits."}, "RIα": {"target": "T3, RIα (Bos taurus, UniProt P00514)", "T3 construct": "made in house; host or cells: E. coli BL21 (B121 [sic])", "T3 sequence (P00514 whole entry)": "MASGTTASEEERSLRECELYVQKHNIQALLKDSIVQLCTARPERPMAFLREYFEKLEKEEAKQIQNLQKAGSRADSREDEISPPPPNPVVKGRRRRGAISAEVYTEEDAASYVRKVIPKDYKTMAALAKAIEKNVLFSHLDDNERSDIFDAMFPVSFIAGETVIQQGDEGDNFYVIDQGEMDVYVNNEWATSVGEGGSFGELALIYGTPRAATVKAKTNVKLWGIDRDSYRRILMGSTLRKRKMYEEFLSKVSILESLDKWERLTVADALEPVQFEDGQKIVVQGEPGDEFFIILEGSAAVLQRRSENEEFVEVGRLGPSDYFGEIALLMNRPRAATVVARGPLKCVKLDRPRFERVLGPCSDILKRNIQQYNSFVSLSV", "assay": "Fluorescence polarization, dissociation constant for RI", "type": "binding, bovine", "details": "qualitative", "procedure": "Fluorescence Polarization. FITC-labeled peptides (SynPep, San Diego) that were used for fluorescence polarization studies included MEME3 (LEQYANQLADQIIKEATEK(5-Carboxyfluorescein)-CONH2) and MEME3 scrambled peptide (IEKELAQQYQNADAITLEK(5-Carboxyfluorescein)-CONH2). Peptides (0.5 nM for RI experiments and 1 nM for RII experiments) were suspended to working dilutions in phosphate-buffered saline containing 5 μg/μl BSA, pH 7.0. Increasing concentrations of recombinant bovine RI wt or recombinant murine RII were added to a PBS solution and mixed with each FITC-labeled peptide. Each sample was incubated for 2.5 hours. Fluorescence polarization was measured on a Beacon 2000 (Panvera, Madison, Wis.), following the manufacturer's instructions. Saturation binding curves were generated with PRISM graphing software (GraphPad, San Diego). Dissociation constants (Kd) were calculated from the nonlinear regression curve from averages of minimum three individual experiments.\nProtein expression and purification. Human RI, Bovine RI and N-terminal deletions thereof or murine RII was expressed in E. coli B121 by IPTG induction. The RI containing pellet was incubated in lysis buffer (10 mM MOPS, pH 6.5, 100 mM NaCl, 10 μM DTT added protease inhibitors) and sonicated (Branson Sonifier 250) for 1 minute in three intervals at 0° C. […]"}}, "data": [{"compound": "CC[C@H](C)[C@H](NC(=O)[C@H](CCC(N)=O)NC(=O)[C@H](CC(=O)O)NC(=O)[C@H](C)NC(=O)[C@H](CC(C)C)NC(=O)[C@H](CCC(N)=O)NC(=O)[C@H](CC(N)=O)NC(=O)[C@H](C)NC(=O)[C@H](Cc1ccc(O)cc1)NC(=O)[C@H](CCC(N)=O)NC(=O)[C@H](CCC(=O)O)NC(=O)[C@@H](N)CC(C)C)C(=O)N[C@H](C(=O)N[C@@H](CCCCN)C(=O)N[C@@H](CCC(=O)O)C(=O)N[C@@H](C)C(=O)N[C@H](C(=O)N[C@@H](CCC(=O)O)C(=O)N[C@@H](CCCCNC(=O)c1ccc2c(c1)C(=O)OC21c2ccc(O)cc2Oc2cc(O)ccc21)C(N)=O)[C@@H](C)O)[C@@H](C)CC", "note": "[MEME3]", "values": [{"measurement": "co-precipitation with RII", "setting": "RII", "value": "not with RII"}]}, {"compound": "IEKELAQQYQNADAITLE [SM3, scrambled MEME3 negative control peptide, reference compound]", "values": [{"measurement": "immobilization of PKA-RIIα", "setting": "PKA-RIIα", "value": "Neither PKA-RIα, PKA-C nor PKA-RIIα were immobilized"}, {"measurement": "interaction with RI subunit", "setting": "RIα", "value": "No RIα binding"}, {"measurement": "interaction with RI subunit", "setting": "RIα; listed as control peptide", "value": "did not interact with either R subunit"}]}]}
